Target: T1, HCBD–GST (helical cargo-binding domain of mouse Myo6, residues 1052–1096) (Mus musculus (Mouse), UniProt Q64331)
T1 chain: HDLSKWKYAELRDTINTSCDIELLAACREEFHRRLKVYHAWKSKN
Assay: GST pulldown, Coomassie-stained gel

B1: GIPC3 PDZ-GH2 domains (93–297), MBP-tagged (protein)
chain: GETKEVEVTKTEDALGLTITDNGAGYAFIKRIKEGSIINRIEAVCVGDSIEAINDHSIVGCRHYEVAKMLRELPKSQPFTLRLVQPRRAFDMIGQRSRSSKCPVEAKVSSGRETLRLRSGGAATVEEAPSDVEAAAARRVDDLLESYMGIRDPELAAAVVETARSSAGAQAFARGLDAVLGEFAFPDEFVVEVWAAIGEAHDACG
binding result: binds

B2: GIPC3 PDZ (93–181), MBP-tagged (protein)
chain: GETKEVEVTKTEDALGLTITDNGAGYAFIKRIKEGSIINRIEAVCVGDSIEAINDHSIVGCRHYEVAKMLRELPKSQPFTLRLVQPRRA
binding result: no binding

— publication PMC10234109 (2023)
